The target in this test is CD215 (IL-15Rα), CD122 (IL-15Rβ), and CD132 (IL-15Rγ) proteins expressed together on the HEK Blue cell line. Briefly: cell-based or functional assay.

With “Wild-type IL-2 (from UniProt P60568 21-153) (ligand)”, the EC50 (nM), SEAP reporter at 620 nm, HEK Blue cell line is 0.007 nM.

The values are drawn from patent publication EP4741426A1.
